System: Escherichia coli TOP10
Assay: shrunken log2 fold change of peptide-encoding DNA abundance (4.5 h post-induction vs induction); higher = less antimicrobial activity (less host growth inhibition)
Conditions: time post-induction: 4.5 h; library: site-saturation at positions 5, 18, 19, 20
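Note: peptides expressed intracellularly from a pBAD plasmid library in pooled LB shake-flask culture, induced with 0.3% L-arabinose, DNA abundance read by NGS, three biological replicates, DESeq2 with apeglm shrinkage.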

Sequence | shrunken log2 fold change
RRIRYRPPRLPRPRPRPQPFPRP | 0.00414
RRIRSRPPRLPRPRPRPSDYPRP | -0.87
RRIRARPPRLPRPRPRPSHSPRP | -0.101
RRIRGRPPRLPRPRPRPWLYPRP | 0.285
RRIRGRPPRLPRPRPRPRGVPRP | 0.89
RRIRLRPPRLPRPRPRPHDRPRP | -0.132
RRIRKRPPRLPRPRPRPQYCPRP | -0.0171
RRIRFRPPRLPRPRPRPNNPPRP | -0.625
RRIRMRPPRLPRPRPRPGWAPRP | 0.965
RRIRDRPPRLPRPRPRPEILPRP | -0.101
RRIRWRPPRLPRPRPRPTQSPRP | 0.472
RRIRYRPPRLPRPRPRPMHWPRP | -0.597
RRIRCRPPRLPRPRPRPWMKPRP | -0.0192
RRIRFRPPRLPRPRPRPEPQPRP | 0.417
RRIRARPPRLPRPRPRPAPPPRP | 1.27
RRIRNRPPRLPRPRPRPAVNPRP | -0.169
RRIRKRPPRLPRPRPRPFWSPRP | -0.00917
RRIRRRPPRLPRPRPRPCVMPRP | 0.113
RRIRARPPRLPRPRPRPWFNPRP | -0.142
RRIRSRPPRLPRPRPRPKYRPRP | 0.127
RRIRARPPRLPRPRPRPYSEPRP | -0.339
RRIRGRPPRLPRPRPRPWEAPRP | -0.0319

Sequence | shrunken log2 fold change
RRIRHRPPRLPRPRPRPSMWPRP | -0.095
RRIRRRPPRLPRPRPRPLHYPRP | 0.239
RRIRGRPPRLPRPRPRPYENPRP | -0.0711
RRIRPRPPRLPRPRPRPDTKPRP | -0.0208
RRIRNRPPRLPRPRPRPVHCPRP | -0.123
RRIRTRPPRLPRPRPRPTVMPRP | -0.152
RRIRSRPPRLPRPRPRPCNPPRP | -0.212
RRIRDRPPRLPRPRPRPRQVPRP | 0.262
RRIRQRPPRLPRPRPRPYSGPRP | -0.126
RRIRIRPPRLPRPRPRPLYEPRP | -0.649
RRIRNRPPRLPRPRPRPVKIPRP | 0.0539
RRIRERPPRLPRPRPRPMHVPRP | 0.05
RRIRIRPPRLPRPRPRPDNSPRP | -1.35
RRIRLRPPRLPRPRPRPFLIPRP | -0.666
RRIRRRPPRLPRPRPRPGIQPRP | 0.0906
RRIRQRPPRLPRPRPRPAMRPRP | 0.718
RRIRKRPPRLPRPRPRPDDWPRP | 1.73
RRIRSRPPRLPRPRPRPSITPRP | -0.392
RRIRCRPPRLPRPRPRPVPLPRP | 0.00193
RRIRSRPPRLPRPRPRPLHCPRP | 0.0547
RRIRPRPPRLPRPRPRPGTTPRP | 0.195
RRIRIRPPRLPRPRPRPESLPRP | -0.23

Sequence | shrunken log2 fold change
RRIRFRPPRLPRPRPRPTEGPRP | -0.289
RRIRRRPPRLPRPRPRPWAFPRP | 0.00699
RRIRMRPPRLPRPRPRPSCIPRP | -0.27
RRIRKRPPRLPRPRPRPKNMPRP | -0.129
RRIRERPPRLPRPRPRPIQQPRP | -0.0452
RRIRTRPPRLPRPRPRPIWHPRP | 0.12
RRIRDRPPRLPRPRPRPWFTPRP | -0.175
RRIRHRPPRLPRPRPRPNAWPRP | 0.341
RRIRMRPPRLPRPRPRPCINPRP | -0.0644
RRIRHRPPRLPRPRPRPGMDPRP | -0.0518
RRIRSRPPRLPRPRPRPNFQPRP | -0.089
RRIRSRPPRLPRPRPRPYGFPRP | -0.85
RRIRRRPPRLPRPRPRPEHSPRP | 0.143
RRIRKRPPRLPRPRPRPLADPRP | 0.559
RRIRARPPRLPRPRPRPFLQPRP | 0.123
RRIRNRPPRLPRPRPRPDFEPRP | -0.0968
RRIRFRPPRLPRPRPRPNNVPRP | -0.179
RRIRARPPRLPRPRPRPFGHPRP | 0.132
RRIRYRPPRLPRPRPRPTETPRP | -0.00564
RRIRHRPPRLPRPRPRPALNPRP | 0.0444
RRIRVRPPRLPRPRPRPDGYPRP | -0.00884
RRIRYRPPRLPRPRPRPIKDPRP | -0.171

Sequence | shrunken log2 fold change
RRIRHRPPRLPRPRPRPMMYPRP | -0.0859
RRIRERPPRLPRPRPRPVKSPRP | -0.155
RRIRMRPPRLPRPRPRPIQCPRP | -0.239
RRIRMRPPRLPRPRPRPDGKPRP | 0.322
RRIRTRPPRLPRPRPRPSWKPRP | -0.124
RRIRHRPPRLPRPRPRPSDMPRP | 2.66
RRIRTRPPRLPRPRPRPRCQPRP | 0.113
RRIRGRPPRLPRPRPRPVNRPRP | -0.0382
RRIRGRPPRLPRPRPRPRGDPRP | 0.481
RRIRLRPPRLPRPRPRPVPAPRP | 0.222
RRIRARPPRLPRPRPRPPRFPRP | 1.13
RRIRGRPPRLPRPRPRPHMGPRP | 0.121
RRIRERPPRLPRPRPRPFSMPRP | -0.366
RRIRRRPPRLPRPRPRPEGFPRP | 0.151
RRIRYRPPRLPRPRPRPNRVPRP | -0.172
RRIRFRPPRLPRPRPRPGHGPRP | 0.148
RRIRFRPPRLPRPRPRPHENPRP | 0.0161
RRIRDRPPRLPRPRPRPNPHPRP | -0.247
RRIRNRPPRLPRPRPRPDACPRP | -0.0102
RRIRHRPPRLPRPRPRPQYSPRP | -0.572
RRIRLRPPRLPRPRPRPMHNPRP | -0.429
RRIRTRPPRLPRPRPRPVNPPRP | -0.0713

Sequence | shrunken log2 fold change
RRIRKRPPRLPRPRPRPQICPRP | -0.0742
RRIRMRPPRLPRPRPRPHVEPRP | 0.00707
RRIRWRPPRLPRPRPRPCICPRP | 0.16
RRIRERPPRLPRPRPRPCLPPRP | -0.259
RRIRPRPPRLPRPRPRPQSTPRP | -0.136
RRIRMRPPRLPRPRPRPRLFPRP | 0.998
RRIRQRPPRLPRPRPRPHDPPRP | 0.142
RRIRARPPRLPRPRPRPTDFPRP | -0.000766
RRIRHRPPRLPRPRPRPNLTPRP | -0.588
RRIRPRPPRLPRPRPRPFCQPRP | -0.257
RRIRIRPPRLPRPRPRPETHPRP | -0.413
RRIRNRPPRLPRPRPRPFMAPRP | -0.513
RRIRWRPPRLPRPRPRPLASPRP | 0.26
RRIRPRPPRLPRPRPRPADMPRP | 0.0113
RRIRHRPPRLPRPRPRPYFMPRP | -0.489
RRIRPRPPRLPRPRPRPHPLPRP | 0.0451
RRIRTRPPRLPRPRPRPWVVPRP | -0.0414
RRIRLRPPRLPRPRPRPTNTPRP | -0.375
RRIRRRPPRLPRPRPRPHMCPRP | -0.0222
RRIRERPPRLPRPRPRPQSMPRP | -0.0801
RRIRHRPPRLPRPRPRPRHVPRP | -0.324

Source: the supplement of paper PMC9112550, “Optimization of the antimicrobial peptide Bac7 by deep mutational scanning” (BMC Biology, 2022)
